Measured values taken from patent US8652790 (University of Pennsylvania, dated 2014).

B1: eNOS(p), peptide of the calmodulin-binding domain of endothelial nitric oxide synthase (peptide)
peptide: RKKTFKEVANAVKISASLMG
notes: Synthetic peptide for ITC and for titration of CaM; The expressed version used for target-domain NMR carries an extra amino-terminal GS
B2: CaMKI(p), peptide of the calmodulin-binding domain of calmodulin kinase I (peptide)
peptide: AKSKWKQAFNATAVVRHMRKLQ
notes: Synthetic peptide for ITC and for titration of CaM; The expressed version used for target-domain NMR carries an extra amino-terminal GS; also called CaMK1p
B3: nNOS(p), peptide of the calmodulin-binding domain of neuronal nitric oxide synthase (peptide)
peptide: KRRAIGFKKLAEAVKFSAKLMGQ
notes: Synthetic peptide for ITC and for titration of CaM
B4: PDE(p), peptide of the calmodulin-binding domain of phosphodiesterase (C15S) (peptide)
peptide: QTEKMWQRLKGILRSLVKQ
notes: C15S is used to avoid oxidation; also called PDEs(p)

Columns and labels:
[1] = biological target: T1, calcium-saturated calmodulin (human CaM, GenBank AAD45181) (human, UniProt P0DP23 2-149); assay: isothermal titration calorimetry, CaM (200 µM) titrated into 5-20 µM peptide, 308 K
[2] = biological target: T1, calcium-saturated calmodulin (human …); assay: isothermal titration calorimetry, CaM (200 µM) titrated into 5-20 µM peptide, 308 K; footnote c: From Frederick et al.

| Binder | -TΔSbinding^total [1] [kcal/mol] | ΔGbinding^total [1] [kcal/mol] | ΔHbinding^total [1] [kcal/mol] | -TΔSbinding^total [2] [kcal/mol] | ΔGbinding^total [2] [kcal/mol] | ΔHbinding^total [2] [kcal/mol] |
| --- | --- | --- | --- | --- | --- | --- |
| B1 | 6.14 | -11.8 | -17.9 | – | – | – |
| B2 | – | – | – | 16.6 | -11.8 | -28.4 |
| B3 | -0.454 | -12.4 | -11.9 | – | – | – |
| B4 | 8.1 | -9.06 | -17.2 | – | – | – |
